Results as given in article PMC3355152, “Crystal Structures of Lsm3, Lsm4 and Lsm5/6/7 from Schizosaccharomyces pombe” (PLoS ONE, 2012).

Experiments:
[1] = biological target: the molecule itself; experiment: crystal structure; SeMet crystals grown from the SeMet-SpLsm2/3 sample; hanging drop, 15°C, 0.1 M Mes pH 6.5, 0.2 M MgCl2, 40% MPD; 2.7 Å, SAD; only SpLsm3 in the crystal
[2] = biological target: the molecule itself; experiment: AUC; sedimentation equilibrium, 20°C, 20 mM Hepes pH 7.5, 500 mM NaCl; 15,000, 18,000, 25,000 rpm; 0.3-1.5 mg/ml; fitted to a monomer-trimer model (HETEROANALYSIS); monomer to trimer
[3] = biological target: the molecule itself; experiment: AUC; sedimentation velocity, 42000 r.p.m., 20°C, 20 mM Hepes pH 7.5, 100 mM NaCl; 0.75, 1.0 and 1.5 mg/ml; c(S) and c(M) distributions (SEDFIT)

Protein	stoichiometry N [3]	other results
SpLsm3 from the co-expressed SpLsm2/3 sample (natural protein, SeMet-substituted in the crystal, Lsm3 (Sm-like protein 3), S. pombe, full length; inserted into MCS2 of pETDuet-1, no tag told; The SpLsm3 crystals grew from the SeMet-SpLsm2/3 sample; Residues 1-8 and 56-69 are disordered in the model; also called SeMet-SpLsm3; source: E. coli B834 (DE3), co-expressed with His6-SpLsm2 (pETDuet-1 MCS2), purified (TALON Co2+, Superdex-200)) not shown		stoichiometry N [1]: 7
SpLsm4N (C-terminal truncated Lsm4 from S. pombe, residues 1-91) (domain or fragment, UniProt O14352 1-91, looked up, SeMet-substituted in the crystal, Lsm4 (Sm-like protein 4), S. pombe, residues 1-91; printed monomer mass 12204 Da; No cleavage of the His6 tag is told for this construct; The model covers residues 12-71; also called N-terminal region of Lsm4; source: E. coli B834 (DE3), purified (TALON Co2+, Superdex-75)) MLPLTLLNATQGRPILVELKNGETFNGHLENCDNYMNLTLREVIRTMPDGDKFFRLPECYIRGNNIKYLRIQDEVLSQVAKQQAQQRENRG		stoichiometry N [2]: 3
SpLsm3 (Lsm3 from S. pombe, expressed alone) (natural protein, Lsm3 (Sm-like protein 3), S. pombe, full length; modified pETDuet-1 MCS1 with N-terminal His6-tag followed by a PreScission site; printed monomer mass 11087 Da; source: E. coli B834 (DE3), purified (TALON Co2+, PreScission cleavage, second TALON, Superdex-200); not shown: His6, N-terminal, cleaved) not shown	7	
SpLsm5/6/7 sub-complex (trimeric complex of SpLsm5, SpLsm6 and SpLsm7) (complex, SeMet-substituted in the crystal | SeMet-substituted in the crystal | SeMet-substituted in the crystal, Lsm5 (Sm-like protein 5), S. pombe, full length; Lsm6 (Sm-like protein 6), S. pombe, full length; Lsm7 (Sm-like protein 7), S. pombe, full length; One copy of each subunit (printed mass of this unit 31240 Da); two such trimers form the hexameric ring; source: E. coli B834 (DE3), co-expressed (pETDuet-1 and pACYCDuet-1), purified (TALON Co2+, Superdex-200); copies: 1 + 1 + 1) chain 1: not shown chain 2: MDSSPNEFLNKVIGKKVLIRLSSGVDYKGILSCLDGYMNLALERTEEYVNGKKTNVYGDAFIRGNNVLYVSALDD chain 3: MSSLQKRPGPGNSSQPTERPRKESILDLSRYQDQRIQATFTGGRQITGILKGFDQLMNLVLDDVEEQLRNPEDGKLTGAIRKLGLVVVRGTTLVLIAPMDGSEEIPNPFVQAE	2	
ScLsm3 (Lsm3 from S. cerevisiae) (natural protein, Lsm3 (Sm-like protein 3), Saccharomyces cerevisiae; the Lsm3 gene amplified from genomic DNA; printed monomer mass 10450 Da; source: E. coli B834 (DE3), purified (TALON Co2+, PreScission cleavage, second TALON, Superdex-200); not shown: His6, N-terminal, cleaved) METPLDLLKLNLDERVYIKLRGARTLVGTLQAFDSHCNIVLSDAVETIYQLNNEELSESERRCEMVFIRGDTVTLISTPSEDDDGAVEI	8	
